These results are taken from US6406883.

For this experiment, the target named is human laminin (immobilized; Gibco BRL) (human) (UniProt P25391). Briefly: cell-based or functional assay.
Where [1] appears, read: scale: % of values obtained for the wildtype strain.

Take “Lmb on the surface of Streptococcus agalactiae (GBS) wildtype strain O90R”: under setting [1], the adherence of FITC-labelled lmb mutant lmb-k1 to immobilized laminin, relative to wildtype strain O90R stood at 25 and the adherence of FITC-labelled lmb mutant lmb-k2 to immobilized laminin, relative to wildtype strain O90R amounted to 25. For “Recombinant Lmb protein harboring six consecutive histidin residues at the C-terminus (amino acid 19-306, expressed from pET21a::lmb in E. coli BL21(DE3))”, the adherence of FITC-labelled O90R wildtype bacteria to laminin preincubated with recombinant Lmb (100 ug/ml) (% of the initial values) is 60.
